# ChEMBL document CHEMBL1212772
# B1: Beta-lactamase (Pseudomonas aeruginosa (strain ATCC 15692 / PAO1 / 1C / PRS 101 / LMG12228)), P24735 (protein)
# chain: MRDTRFPCLCGIAASTLLFATTPAIAGEAPADRLKALVDAAVQPVMKANDIPGLAVAISLKGEPHYFSYGLASKEDGRRVTPETLFEIGSVSKTFTATLAGYALTQDKMRLDDRASQHWPALQGSRFDGISLLDLATYTAGGLPLQFPDSVQKDQAQIRDYYRQWQPTYAPGSQRLYSNPSIGLFGYLAARSLGQPFERLMEQQVFPALGLEQTHLDVPEAALAQYAQGYGKDDRPLRVGPGPLDAEGYGVKTSAADLLRFVDANLHPERLDRPWAQALDATHRGYYKVGDMTQGLGWEAYDWPISLKRLQAGNSTPMALQPHRIARLPAPQALEGQRLLNKTGSTNGFGAYVAFVPGRDLGLVILANRNYPNAERVKIAYAILSGLEQQGKVPLKR
# B2: Beta-lactamase IMP-1 (Pseudomonas aeruginosa), Q8G9Q0 (protein)
# chain: MNSPKSRALLGFMGAFCLLLVAGAPLSAKSSDHVDLPYNLTATKIDSDVFVVTDRDFYSSNVLVAKMLDGTVVIVSSPFENLGTQTLMDWVAKTMKPKKVVAINTHFHLDGTGGNEIYKKMGAETWSSDLTKQLRLEENKKDRIKAAEFYKNEDLKRRILSSHPVPADNVFDLKQGKVFSFSNELVEVSFPGPAHSPDNVVVYFPKKKLLFGGCMIKPKELGYLGDANVKAWPDSARRLKKFDAKIVIPGHGEWGGPEMVNKTIKVAEKAVGEMRL
# B3: Beta-lactamase OXA-23 (Acinetobacter baumannii), Q9L4P2 (protein)
# chain: MNKYFTCYVVASLFLSGCTVQHNLINETPSQIVQGHNQVIHQYFDEKNTSGVLVIQTDKKINLYGNALSRANTEYVPASTFKMLNALIGLENQKTDINEIFKWKGEKRSFTAWEKDMTLGEAMKLSAVPVYQELARRIGLDLMQKEVKRIGFGNAEIGQQVDNFWLVGPLKVTPIQEVEFVSQLAHTQLPFSEKVQANVKNMLLLEESNGYKIFGKTGWAMDIKPQVGWLTGWVEQPDGKIVAFALNMEMRSEMPASIRNELLMKSLKQLNII
# How the values were obtained:
# [1] = compound: C[C@@H](O)[C@H]1C(=O)N2C(C(=O)O)=C(SCCNC=N)C[C@H]12; experiment: (§1) Inhibition of Pseudomonas aeruginosa AmpC assessed as inhibition of nitrocefin hydrolysis
# [2] = compound: C[C@@H](O)[C@H]1C(=O)N2C(C(=O)O)=C(S[C@@H]3CN[C@H](CNS(N)(=O)=O)C3)[C@H](C)[C@H]12; experiment: as §1
# [3] = compound: C[C@@H](O)[C@H]1C(=O)N2C(C(=O)O)=C(S[C@@H]3CN[C@H](C(=O)N(C)C)C3)[C@H](C)[C@H]12; experiment: as §1
# [4] = substrate: O=C(Cc1cccs1)N[C@@H]1C(=O)N2C(C(=O)O)=C(/C=C/c3ccc([N+](=O)[O-])cc3[N+](=O)[O-])CS[C@H]12; experiment: (§2) Activity of Pseudomonas aeruginosa AmpC
# [5] = substrate: O=C(Cc1cccs1)N[C@@H]1C(=O)N2C(C(=O)[O-])=C(C[n+]3ccccc3)CS[C@H]12; experiment: as §2
# [6] = substrate: C[C@@H](O)[C@H]1C(=O)N2C(C(=O)O)=C(SCCNC=N)C[C@H]12; experiment: as §2
# [7] = substrate: C[C@@H](O)[C@H]1C(=O)N2C(C(=O)O)=C(S[C@@H]3CN[C@H](CNS(N)(=O)=O)C3)[C@H](C)[C@H]12; experiment: as §2
# [8] = substrate: C[C@@H](O)[C@H]1C(=O)N2C(C(=O)O)=C(S[C@@H]3CN[C@H](C(=O)N(C)C)C3)[C@H](C)[C@H]12; experiment: as §2
# [9] = substrate: CC1(C)S[C@@H]2[C@H](NC(=O)Cc3ccccc3)C(=O)N2[C@H]1C(=O)O; experiment: as §2
# [10] = substrate: O=C(Cc1cccs1)N[C@@H]1C(=O)N2C(C(=O)O)=C(/C=C/c3ccc([N+](=O)[O-])cc3[N+](=O)[O-])CS[C@H]12; experiment: (§3) Kcat/Km ratio of Pseudomonas aeruginosa AmpC
# [11] = substrate: O=C(Cc1cccs1)N[C@@H]1C(=O)N2C(C(=O)[O-])=C(C[n+]3ccccc3)CS[C@H]12; experiment: as §3
# [12] = substrate: C[C@@H](O)[C@H]1C(=O)N2C(C(=O)O)=C(SCCNC=N)C[C@H]12; experiment: as §3
# [13] = substrate: C[C@@H](O)[C@H]1C(=O)N2C(C(=O)O)=C(S[C@@H]3CN[C@H](CNS(N)(=O)=O)C3)[C@H](C)[C@H]12; experiment: as §3
# [14] = substrate: C[C@@H](O)[C@H]1C(=O)N2C(C(=O)O)=C(S[C@@H]3CN[C@H](C(=O)N(C)C)C3)[C@H](C)[C@H]12; experiment: as §3
# [15] = substrate: CC1(C)S[C@@H]2[C@H](NC(=O)Cc3ccccc3)C(=O)N2[C@H]1C(=O)O; experiment: as §3
# [16] = substrate: O=C(Cc1cccs1)N[C@@H]1C(=O)N2C(C(=O)[O-])=C(C[n+]3ccccc3)CS[C@H]12; experiment: (§4) Activity of Pseudomonas aeruginosa IMP-1
# [17] = substrate: C[C@@H](O)[C@H]1C(=O)N2C(C(=O)O)=C(SCCNC=N)C[C@H]12; experiment: as §4
# [18] = substrate: C[C@@H](O)[C@H]1C(=O)N2C(C(=O)O)=C(S[C@@H]3CN[C@H](CNS(N)(=O)=O)C3)[C@H](C)[C@H]12; experiment: as §4
# [19] = substrate: C[C@@H](O)[C@H]1C(=O)N2C(C(=O)O)=C(S[C@@H]3CN[C@H](C(=O)N(C)C)C3)[C@H](C)[C@H]12; experiment: as §4
# [20] = substrate: CC1(C)S[C@@H]2[C@H](NC(=O)Cc3ccccc3)C(=O)N2[C@H]1C(=O)O; experiment: as §4
# [21] = substrate: CC(C)(O/N=C(\C(=O)N[C@@H]1C(=O)N2C(C(=O)[O-])=C(C[n+]3ccccc3)CS[C@H]12)c1csc(N)n1)C(=O)O; experiment: as §4
# [22] = substrate: O=C(Cc1cccs1)N[C@@H]1C(=O)N2C(C(=O)[O-])=C(C[n+]3ccccc3)CS[C@H]12; experiment: (§5) Kcat/Km ratio of Pseudomonas aeruginosa IMP-1
# [23] = substrate: C[C@@H](O)[C@H]1C(=O)N2C(C(=O)O)=C(SCCNC=N)C[C@H]12; experiment: as §5
# [24] = substrate: C[C@@H](O)[C@H]1C(=O)N2C(C(=O)O)=C(S[C@@H]3CN[C@H](CNS(N)(=O)=O)C3)[C@H](C)[C@H]12; experiment: as §5
# [25] = substrate: C[C@@H](O)[C@H]1C(=O)N2C(C(=O)O)=C(S[C@@H]3CN[C@H](C(=O)N(C)C)C3)[C@H](C)[C@H]12; experiment: as §5
# [26] = substrate: CC1(C)S[C@@H]2[C@H](NC(=O)Cc3ccccc3)C(=O)N2[C@H]1C(=O)O; experiment: as §5
# [27] = substrate: CC(C)(O/N=C(\C(=O)N[C@@H]1C(=O)N2C(C(=O)[O-])=C(C[n+]3ccccc3)CS[C@H]12)c1csc(N)n1)C(=O)O; experiment: as §5
# [28] = substrate: O=C(Cc1cccs1)N[C@@H]1C(=O)N2C(C(=O)[O-])=C(C[n+]3ccccc3)CS[C@H]12; settings: Acinetobacter baumannii
# Description: (§7) Kcat/Km ratio of Acinetobacter baumannii OXA-23
# [29] = substrate: C[C@@H](O)[C@H]1C(=O)N2C(C(=O)O)=C(SCCNC=N)C[C@H]12; settings: Acinetobacter baumannii
# Description: as §7
# [30] = substrate: C[C@@H](O)[C@H]1C(=O)N2C(C(=O)O)=C(S[C@@H]3CN[C@H](CNS(N)(=O)=O)C3)[C@H](C)[C@H]12; settings: Acinetobacter baumannii
# Description: as §7
# [31] = substrate: C[C@@H](O)[C@H]1C(=O)N2C(C(=O)O)=C(S[C@@H]3CN[C@H](C(=O)N(C)C)C3)[C@H](C)[C@H]12; settings: Acinetobacter baumannii
# Description: as §7
# [32] = substrate: CC1(C)S[C@@H]2[C@H](NC(=O)Cc3ccccc3)C(=O)N2[C@H]1C(=O)O; settings: Acinetobacter baumannii
# Description: as §7
# [33] = substrate: CC(C)(O/N=C(\C(=O)N[C@@H]1C(=O)N2C(C(=O)[O-])=C(C[n+]3ccccc3)CS[C@H]12)c1csc(N)n1)C(=O)O; experiment: Kcat/Km ratio of Pseudomonas aeruginosa SPM-1
# [34] = substrate: O=C(Cc1cccs1)N[C@@H]1C(=O)N2C(C(=O)[O-])=C(C[n+]3ccccc3)CS[C@H]12; experiment: (§6) Activity of Acinetobacter baumannii OXA-23
# [35] = substrate: C[C@@H](O)[C@H]1C(=O)N2C(C(=O)O)=C(SCCNC=N)C[C@H]12; experiment: as §6
# [36] = substrate: C[C@@H](O)[C@H]1C(=O)N2C(C(=O)O)=C(S[C@@H]3CN[C@H](CNS(N)(=O)=O)C3)[C@H](C)[C@H]12; experiment: as §6
# [37] = substrate: C[C@@H](O)[C@H]1C(=O)N2C(C(=O)O)=C(S[C@@H]3CN[C@H](C(=O)N(C)C)C3)[C@H](C)[C@H]12; experiment: as §6
# [38] = substrate: CC1(C)S[C@@H]2[C@H](NC(=O)Cc3ccccc3)C(=O)N2[C@H]1C(=O)O; experiment: as §6
# [39] = substrate: CC(C)(O/N=C(\C(=O)N[C@@H]1C(=O)N2C(C(=O)[O-])=C(C[n+]3ccccc3)CS[C@H]12)c1csc(N)n1)C(=O)O; experiment: as §6
# Pseudomonas aeruginosa [40] = experiment: Kcat/Km ratio of Pseudomonas aeruginosa SPM-1
# [41] = substrate: CC(C)(O/N=C(\C(=O)N[C@@H]1C(=O)N2C(C(=O)[O-])=C(C[n+]3ccccc3)CS[C@H]12)c1csc(N)n1)C(=O)O; experiment: Activity of Pseudomonas aeruginosa SPM-1
# Pseudomonas aeruginosa [42] = experiment: Activity of Pseudomonas aeruginosa SPM-1
protein,measurement,setting,value
B1,Km,[1],1.6 µM
same,Km,[2],1.8 µM
same,Km,[3],1.4 µM
same,Km,[4],31 µM
same,kcat,[4],150 s⁻¹
same,Km,[5],350 µM
same,kcat,[6],< 0.03 s⁻¹
same,kcat,[7],< 0.006 s⁻¹
same,kcat,[8],< 0.006 s⁻¹
same,Km,[9],14 µM
same,kcat/Km,[10],4.8 s⁻¹ µM⁻¹
same,kcat/Km,[11],0.27 s⁻¹ µM⁻¹
same,kcat/Km,[12],< 4.8 s⁻¹ µM⁻¹
same,kcat/Km,[13],< 0.0033 s⁻¹ µM⁻¹
same,kcat/Km,[14],< 0.0043 s⁻¹ µM⁻¹
same,kcat/Km,[15],3.1 s⁻¹ µM⁻¹
B2,Km,[16],21 µM
same,kcat,[16],270 s⁻¹
same,Km,[17],33 µM
same,kcat,[17],190 s⁻¹
same,Km,[18],30 µM
same,kcat,[18],110 s⁻¹
same,Km,[19],6.5 µM
same,kcat,[19],26 s⁻¹
same,Km,[20],550 µM
same,kcat,[20],1400 s⁻¹
same,Km,[21],50 µM
same,kcat,[21],37 s⁻¹
same,kcat/Km,[22],13 s⁻¹ µM⁻¹
same,kcat/Km,[23],5.8 s⁻¹ µM⁻¹
same,kcat/Km,[24],3.7 s⁻¹ µM⁻¹
same,kcat/Km,[25],4 s⁻¹ µM⁻¹
same,kcat/Km,[26],2.5 s⁻¹ µM⁻¹
same,kcat/Km,[27],0.74 s⁻¹ µM⁻¹
B3,kcat/Km,[28],0.35 s⁻¹ µM⁻¹
same,kcat/Km,[29],0.05 s⁻¹ µM⁻¹
same,kcat/Km,[30],0.11 s⁻¹ µM⁻¹
same,kcat/Km,[31],0.052 s⁻¹ µM⁻¹
same,kcat/Km,[32],41 s⁻¹ µM⁻¹
same,kcat/Km,[33],0.64 s⁻¹ µM⁻¹
same,Km,[34],1300 µM
same,kcat,[34],450 s⁻¹
same,Km,[35],1.3 µM
same,kcat,[35],0.92 s⁻¹
same,Km,[36],1.8 µM
same,kcat,[36],0.2 s⁻¹
same,Km,[37],2.5 µM
same,kcat,[37],0.13 s⁻¹
same,Km,[38],13 µM
same,kcat,[38],530 s⁻¹
same,kcat,[39],< 0.0042 s⁻¹
same,kcat/Km,Pseudomonas aeruginosa [40],0.55 s⁻¹ µM⁻¹
same,Km,[41],120 µM
same,kcat,[41],77 s⁻¹
same,Km,Pseudomonas aeruginosa [42],82 µM
same,kcat,Pseudomonas aeruginosa [42],45 s⁻¹
